B1: AT10-003 (antibody, V domains shown)
VH: QVHLVQSGAEVRKPGASVKVSCKVSGYTLNELSIHWLRQAPGRGLEWMGSFDPEDGETIYAQKFQGRVTMTGDTSTDTAYLELTSLRSEDTALYYCARGWGAVTSPFDFWGQGTLVTVSS
VL: DIVMTQSPLSLPVTPGEPASISCRSSQSLLHSNGHIYFDWYLQKPGQSPQLLIYLVSKRASGVPDRFSGSGSGTDFTLKISRVEAEDVGVYYCMQALETPFTFGPGTKVHIKR
B2: AT10-004 (antibody, V domains shown)
VH: QVQLVQSGAEVRKPGASVKVSCKASGYTFTRHGISWVRQAPGQGLEWMGWISAYTGDTDYAQKFQGRVTMTTDTSTNTAYMELRSLRSDDAAVYYCARLRLQGEVVVPPSQSNWFDPWGQGTLVTVSS
VL: EIVLTQSPATLSLYPGERATLSCRASQSVSRYLAWYQQKPGQAPRLLIYDASNRATGIPARFSGSGSGTDFTLTISSLEPEDFAVYYCQQRSNWLKITFGQGTRLEIKG
B3: AT10-002 (antibody, V domains shown)
VH: QLQLQESGPRLVKPSETLSLTCSVSGVSISSSNYYWGWIRQPPGKGLEWIGTIYHSGSTYYNPSLKSRLIISVDTSKNQFYLQLTSLTAADSAVYYCATGGGFGWSQTYFGYWGQGTLVTASS
VL: QSALTQPASVSGSPGQSITISCTGTSSDVGAYNYVSWYQHHPGKAPKLMIYDVTYRPSGVSTRFSGSKSGNTASLTISGLQAEDEADYYCSSQSRSSTLVIFGGGTKLTVLG
B4: AT10-001 (antibody, V domains shown)
VH: EVQLLESGGGLVQPGGSLRLSCAASGFSFSTYAMSWVRQAPGKGLEWVSGISGSGESTYYADSVKGRFTVSRDNSKNTLYLQMNSLRAEDTAVYYCAKQGDHIAWLLRGINFDYWGQGVLVTVSS
VL: EIVLTQSPGTLSLSPGERATLSCRASQSVSSSYLAWYQQKPGQAPRLLIYGASTRATGIPDRFSGRGSGTDFTLTISSLEPEDFAVYYCQNYGSPFLFTFGPGTKVDIKR

The target in one experiment is HA of Influenza H3N2 (A/Swine/St. Oedenrode/1996), on infected MDCK cells or on virus (Influenza A virus H3N2 A/Swine/St. Oedenrode/1996 (host Swine)). In words: cell-based or functional assay.
In turn, B1 had an IC50, in vitro virus neutralization on MDCK cells of over 15 µg/mL.

The molecule B2 yielded an IC50, in vitro virus neutralization on MDCK cells of 2.3 µg/mL.

The molecule B3 showed an IC50, in vitro virus neutralization on MDCK cells of 0.3 µg/mL.

For B4, the IC50, in vitro virus neutralization on MDCK cells turned out to be 14 µg/mL.

For another experiment, the target named is HA of high pathogenic H7N7 (A/Ch/Neth/621557/03), on infected MDCK cells or on virus (Influenza A virus H7N7 A/Ch/Neth/621557/03 (host Chicken)). The experiment can be described thus: cell-based or functional assay.
As to B1, the IC50, in vitro virus neutralization on MDCK cells was over 15 µg/mL.

Take B2: the IC50, in vitro virus neutralization on MDCK cells was found to be 0.2 µg/mL.

Molecule B3 displayed an IC50, in vitro virus neutralization on MDCK cells of 0.1 µg/mL.

With B4, the IC50, in vitro virus neutralization on MDCK cells turned out to be 0.4 µg/mL.

Another experiment has as its target HA of Influenza H1N1 (A/Hawaii/31/2007), on infected MDCK-SIAT cells or on virus (Influenza A virus H1N1 A/Hawaii/31/2007). The experiment can be described thus: cell-based or functional assay.
The molecule B1 registered an IC50, in vitro virus neutralization on MDCK-SIAT cells of over 15 µg/mL.

On to B2, for which the IC50, in vitro virus neutralization on MDCK-SIAT cells was over 50 µg/mL.

The molecule B3 returned an IC50, in vitro virus neutralization on MDCK-SIAT cells of over 15 µg/mL.

Another experiment deals with HA of H5N1 A/turkey/Turkey/05 virus (Influenza A virus H5N1 A/turkey/Turkey/05). The experiment can be described thus: cell-based or functional assay.
As for B2, the IC50, in vitro virus neutralization on MDCK cells is over 15 µg/mL.

Another experiment concerns the target HA of low pathogenic H7N1 (A/Ch/Italy/1067/1999), on infected MDCK cells or on virus (Influenza A virus H7N1 A/Ch/Italy/1067/1999 (host Chicken)). In words: cell-based or functional assay.
In turn, B1 registered an IC50, in vitro virus neutralization on MDCK cells of over 15 µg/mL.

As to B2, the IC50, in vitro virus neutralization on MDCK cells amounted to 0.6 µg/mL.

On to B3, for which the IC50, in vitro virus neutralization on MDCK cells is 3.6 µg/mL.

As for B4, the IC50, in vitro virus neutralization on MDCK cells is over 15 µg/mL.

The target of the next experiment is HA of Influenza H1N1 (A/Neth/602/2009), on infected MDCK cells or on virus (Influenza A virus H1N1 A/Neth/602/2009 (host Human)). In words: cell-based or functional assay.
In turn, B1 returned an IC50, in vitro virus neutralization on MDCK cells of over 15 µg/mL.

Regarding B2, the IC50, in vitro virus neutralization on MDCK cells was over 15 µg/mL.

Molecule B3 registered an IC50, in vitro virus neutralization on MDCK cells of over 15 µg/mL.

Take B4: the IC50, in vitro virus neutralization on MDCK cells is over 15 µg/mL.

For a further experiment, the target named is HA of Influenza H3N2 (A/Netherlands/177/2008), on infected MDCK-SIAT cells or on virus (Influenza A virus H3N2 A/Netherlands/177/2008). In words: cell-based or functional assay.
For the molecule B1, the IC50, in vitro virus neutralization on MDCK-SIAT cells was over 50 µg/mL.

Molecule B2 showed an IC50, in vitro virus neutralization on MDCK-SIAT cells of 0.17 µg/mL.

For the molecule B3, the IC50, in vitro virus neutralization on MDCK-SIAT cells came to 0.18 µg/mL.

As for B4, the IC50, in vitro virus neutralization on MDCK-SIAT cells came out at 0.64 µg/mL.

Another experiment has as its target HA of H3N2 HKX-31 virus (Influenza A virus H3N2 HKX-31). The experiment can be described thus: cell-based or functional assay.
B2: the IC50, in vitro virus neutralization on MDCK-SIAT cells was 0.017 µg/mL.

The values above are taken from patent publication US20150010566A1.
